Results on four molecules are retold here after US20220348635A1, “COMPOSITIONS AND METHODS FOR NEUROLOGICAL DISEASES” (Coda Biotherapeutics, Inc., priority 2019, published 2022).

Numbering of substitutions follows the chain as printed. Names may count otherwise.

What all share (format): cell-based
Assay [1] is described as follows: YFP quench plate reader assay, response to TC-6987. Particulars: LX293T YFP reporter cells; for percent quench of YFP fluorescence, 1 uM tc6: 1 uM TC-6987; for percent quench of YFP fluorescence, 10 uM tc6: 10 uM TC-6987; for percent quench of YFP fluorescence, 500 uM tc6: 500 uM TC-6987. From the text:
(§1) FIGS. 1A-FIG. 1G show the heat maps of the percent quench of YFP fluorescence in the mutants of the engineered chimeric receptor SEQ ID NO:33 that comprise the indicated double amino acid substitutions following stimulation by various doses of either acetylcholine or the indicated non-native ligand. Ligand doses are written across the top of each chart. Numbers in the boxes indicate the absolute amount of quench observed. Dark blue=80% maximal quench of YFP reporter. Light blue=quench of 30-80%. White=10-30%. Orange=0-10% quench. Negative values represent non-responders that have a negative quench due to a stimulation artifact. SEQ ID NO:29 is a non-responding chimera used as a negative control. Abbreviations for non-native ligand names: abt: ABT-126; ach: acetylcholine; apn: APN-1125; azd: AZD-0328; brd: TC-5619; fac: RG3487; tc6: TC-6987.
(§2) Tables 2-8 below lists percent quench of YFP fluorescence following stimulation of the indicated engineered receptor by various doses of either acetylcholine or the non-native ligand.
(§3) To screen these mutant LGICs for those having novel response profiles to ligands, an anion reporter assay was developed to assess the function of channels in a high throughput format. In this assay, cells expressing a YFP reporter whose fluorescence is quenched in the presence of anion are transfected with DNA encoding the channel of interest. Upon exposure to ligand, channels that are activated will flux anion, resulting in a dose-dependent quench of the YFP that can be detected on a plate reader.
(§4) Lenti-X 293T cells (LX293T, Clontech) were maintained in DMEM containing 10% FBS and 1% penicillin/streptomycin (Invitrogen). […] Two days before assay, cells were split at a density of 20,000 cells/well in a 96-well tissue culture plate coated with poly-d lysine (Thermo Scientific). The next day, the cells were transiently transfected with 0.1 μg of DNA per well using standard Fugene protocol (Promega). On the day of assay, cells were washed 2 times in 1× extracellular solution (1×ECS: 140 mM NaCl, 5 mM KCl, 1 mM MgCl2, 2 mM CaCl2, 10 mM HEPES, 10 mM glucose, pH 7.2, mOsms 300). After the last wash, 100 μL of 1×ECS was added to the wells and the plate was incubated at 37° C. for 30 min. While incubating the plate, the drugs were diluted to a 2× concentration in 1×ECS-NaI (same components as 1×ECS except the 140 mM NaCl was replaced by 140 mM NaI). The plates were then read on a Flexstation3 (Molecular Devices). Each well, 8 wells at a time, of the plate is read for 2 min using a Flexstation3 (Molecular Devices) as follows: 1) a baseline YFP fluorescence is read for 17 sec, 2) 100 μL of ligand is added, and 3) the changes in YFP fluorescence are then measured every 1.3 sec for the remaining time.
(§5) FIG. 1 provides heat maps of the percent quench of YFP fluorescence following stimulation by various doses of either acetylcholine or the non-native ligand as indicated in the Figure. A positive fluorescence signal, as indicated by blue shaded cells, indicate that the engineered receptor is activated by the non-native ligand at that concentration. […] Table 12 lists the EC50 values for the indicated double mutants to acetylcholine (Ach) and TC-5619 as determined from the YFP fluorescence plate reader experiment.

A short description of assay [2]: YFP quench plate reader assay, response to AZD-0328. The note with it: LX293T YFP reporter cells; for percent quench of YFP fluorescence, 100 nM azd: 100 nM AZD-0328; for percent quench of YFP fluorescence, 300 nM azd: 300 nM AZD-0328; for percent quench of YFP fluorescence, 30 uM azd: 30 uM AZD-0328.
Description: as §1, §2, §3, §4, §5

The nature of assay [3]: YFP quench plate reader assay, response to APN-1125. The note with it: LX293T YFP reporter cells; for percent quench of YFP fluorescence, 100 nM apn: 100 nM APN-1125; for percent quench of YFP fluorescence, 1 uM apn: 1 uM APN-1125; for percent quench of YFP fluorescence, 30 uM apn: 30 uM APN-1125.
Description: as §1, §2, §3, §4, §5

Assay [4] in a line: YFP quench plate reader assay, response to TC-5619. The note with it: LX293T YFP reporter cells.
Description: as §1, §2, §3, §4, §5

Assay [5] is described as follows: YFP quench plate reader assay, response to acetylcholine. Particulars: LX293T YFP reporter cells; for percent quench of YFP fluorescence, 10 uM ach: 10 uM acetylcholine; for percent quench of YFP fluorescence, 100 uM ach: 100 uM acetylcholine; for percent quench of YFP fluorescence, 1 mM ach: 1 mM acetylcholine; for percent quench of YFP fluorescence, 3 mM ach: 3 mM acetylcholine.
Description: as §1, §2, §3, §4, §5

Assay [6] can be described thus: YFP quench plate reader assay, response to RG3487. The note with it: LX293T YFP reporter cells; for percent quench of YFP fluorescence, 30 nM fac: 30 nM RG3487; for percent quench of YFP fluorescence, 300 nM fac: 300 nM RG3487; for percent quench of YFP fluorescence, 30 uM fac: 30 uM RG3487.
Description: as §1, §2, §3, §4, §5

Assay [7] can be described thus: YFP quench plate reader assay, response to ABT-126. Particulars: LX293T YFP reporter cells; for percent quench of YFP fluorescence, 50 nM abt: 50 nM ABT-126; for percent quench of YFP fluorescence, 100 nM abt: 100 nM ABT-126; for percent quench of YFP fluorescence, 300 nM abt: 300 nM ABT-126; for percent quench of YFP fluorescence, 1 uM abt: 1 uM ABT-126.
Description: as §1, §2, §3, §4, §5

Assay [8] is described as follows: High throughput electrophysiology in HEK293T cells, AZD-0328. Particulars: HEK293T cells, held at −60 mV. As for the experimental part: To confirm the EC50s determined by plate reader as well as develop a better understanding of maximum current flow, the engineered receptors were subjected to high throughput electrophysiology system, as described below. For HEK293T studies, cDNAs encoding ion channels were cloned into pcDNA3.1 using standard recombination techniques. HEK293T cells from Clontech (Lenti-X™ 293T Cell Line) were cultured in DMEM supplemented with 10% FBS and 1% Pen/Strep to 40-50% confluence using standard cell culture protocols, transfected with ion channel plasmids at a concentration of 18 μg per 15 cm dish using Fugene 6, and grown for an additional 24 hours. Cells were then assayed on a electrophysiological system (IonFluxHT and/or Mercury, Fluxion Biosciences) in which dose-response relationships may be assessed through a microfluidics-based platform for establishing whole cell configurations. Ensemble plates were primed with extracellular buffer (140 mM NaCl, 5 mM KCl, 2 mM CaCl2), 1 mM MgCl2, 10 mM HEPES, and 10 mM glucose, pH 7.2 with NaOH, mOsm 310), intracellular buffer (145 mM CsCl, 2 mM CaCl2, 2 mM MgCl2, 10 mM HEPES, and 10 mM EGTA, pH 7.2 with CsOH, mOsm 305), as adapted from Lynagh and Lynch, and test compounds (stocks prepared fresh) diluted in extracellular buffer. Cells were then released from the plate with Accutase, centrifuged, resuspended in extracellular buffer, and loaded into Ensemble plates. Cells were then subjected to a standard protocol for priming, trapping, breaking, and establishing whole cell configuration, with cells held at −60 mV throughout the recording. After recording baseline, progressive doses of test compounds were applied using the IonFlux software to assess dose response relationships. Data were then analyzed off-line using custom Python scripts to convert data to .csv format, re-plot traces, and apply QC measurements to reject unstable recordings (i.e. thresholding based on access resistance and/or standard deviation in baseline, as well as artifact rejection). Peak currents were then calculated and population data were fit using a 4-parameter logistic equation as described by the Hill Equation. Currents were measured on an automated patch clamp system (Fluxion Biosciences) following 1 second addition of drug and the EC50 values calculated are tabulated below in Table 13.

B1: L131S, S172D in SEQ ID NO: 33: engineered chimeric α7-nAChR/GlyRα1 LGIC receptor: SEQ ID NO: 33 with substitutions L131S and S172D (protein)
chain: MRCSPGGVWLALAASLLHVSLQGEFQRKLYKELVKNYNPLERPVANDSQPLTVYFSLSLLQIMDVDEKNQVLTTNIWLQMSWTDHYLQWNVSEYPGVKTVRFPDGQIWKPDILLYNSADERFDATFHTNVSVNSSGHCQYLPPGIFKSSCPMDLKNFPMDVQTCKLKFGSWDYGGWSLDLQMQEADISGYIPNGEWDLVGIPGKRSERFYECCKEPYPDVTFTVTMRRRMGYYLIQMYIPSLLIVILSWISFWINMDAAPARVGLGITTVLTMTTQSSGSRASLPKVSYVKAIDIWMAVCLLFVFSALLEYAAVNFVSRQHKELLRFRRKRRHHKSPMLNLFQEDEAGEGRFNFSAYGMGPACLQAKDGISVKGANNSNTTNPPPAPSKSPEEMRKLFIQRAKKIDKISRIGFPMAFLIFNMFYWIIYKIVRREDVHNQ
modifications: synthetic sequence of chimeric LGIC
For B1, in assay [1], the “percent quench of YFP fluorescence, 1 uM tc6” value is given as −20.99%; the “percent quench of YFP fluorescence, 10 uM tc6” value is −27.62%; the “percent quench of YFP fluorescence, 500 uM tc6” value is −24.22%. Further, in assay [2], the “percent quench of YFP fluorescence, 100 nM azd” value is on record as −9.32%; the “percent quench of YFP fluorescence, 300 nM azd” value is reported as 4.94%; the “percent quench of YFP fluorescence, 30 uM azd” value came out at 60.61%. Also, in assay [3], the “percent quench of YFP fluorescence, 100 nM apn” value was found to be 14.26%; the “percent quench of YFP fluorescence, 1 uM apn” value is on record as 45.55%; the “percent quench of YFP fluorescence, 30 uM apn” value is listed as 64.93%. Moreover, the “percent quench of YFP fluorescence, 1 nM brd” value in assay [4] (1 nM TC-5619) is recorded as −1.13%. Also, the “percent quench of YFP fluorescence, 3 nM brd” value in assay [4] (3 nM TC-5619) is −3.83%. Moreover, the “percent quench of YFP fluorescence, 10 nM brd” value in assay [4] (10 nM TC-5619) is −3.78%. The “percent quench of YFP fluorescence, 100 nM brd” value in assay [4] (100 nM TC-5619) is −2.03%. For the same molecule, the “percent quench of YFP fluorescence, 1 uM brd” value in assay [4] (1 uM TC-5619) is given as 1.68%. Further, in assay [5], the “percent quench of YFP fluorescence, 10 uM ach” value was −11.3%; the “percent quench of YFP fluorescence, 100 uM ach” value is given as −27.53%; the “percent quench of YFP fluorescence, 1 mM ach” value is reported as 2.84%; the “percent quench of YFP fluorescence, 3 mM ach” value worked out at 14.65%. Besides, in assay [6], the “percent quench of YFP fluorescence, 30 nM fac” value is listed as −23.44%; the “percent quench of YFP fluorescence, 300 nM fac” value is 2.75%; the “percent quench of YFP fluorescence, 30 uM fac” value came out at 61.44%. The “percent quench of YFP fluorescence, 10 uM fac” value in assay [6] (10 uM RG3487) was determined as 69.71%. Besides, in assay [7], the “percent quench of YFP fluorescence, 50 nM abt” value is given as −11.96%; the “percent quench of YFP fluorescence, 100 nM abt” value is reported as −10.72%; the “percent quench of YFP fluorescence, 300 nM abt” value amounted to 11.65%; the “percent quench of YFP fluorescence, 1 uM abt” value is listed as −3.06%.

B2: L131T, S172D in SEQ ID NO: 33: engineered chimeric α7-nAChR/GlyRα1 LGIC receptor: SEQ ID NO: 33 with substitutions L131T and S172D (protein)
chain: B1 chain with S131T
modifications: synthetic sequence of chimeric LGIC
Turning to B2, in assay [1], the “percent quench of YFP fluorescence, 1 uM tc6” value is on record as −21.8%; the “percent quench of YFP fluorescence, 10 uM tc6” value is −27.08%; the “percent quench of YFP fluorescence, 500 uM tc6” value is recorded as −21.56%. For the same molecule, in assay [2], the “percent quench of YFP fluorescence, 100 nM azd” value was −7.02%; the “percent quench of YFP fluorescence, 300 nM azd” value was −0.48%; the “percent quench of YFP fluorescence, 30 uM azd” value is 70.16%. Also, in assay [3], the “percent quench of YFP fluorescence, 100 nM apn” value was 1.23%; the “percent quench of YFP fluorescence, 1 uM apn” value turned out to be 35.77%; the “percent quench of YFP fluorescence, 30 uM apn” value is on record as 68.29%. Moreover, in assay [5], the “percent quench of YFP fluorescence, 10 uM ach” value is −12.24%; the “percent quench of YFP fluorescence, 100 uM ach” value was −26.23%; the “percent quench of YFP fluorescence, 1 mM ach” value is listed as −1.16%; the “percent quench of YFP fluorescence, 3 mM ach” value was 2.97%. In assay [6], the “percent quench of YFP fluorescence, 30 nM fac” value is −21.36%; the “percent quench of YFP fluorescence, 300 nM fac” value amounted to 4.17%; the “percent quench of YFP fluorescence, 30 uM fac” value is given as 65.94%. Further, in assay [7], the “percent quench of YFP fluorescence, 50 nM abt” value is given as −11.09%; the “percent quench of YFP fluorescence, 100 nM abt” value is −10.37%; the “percent quench of YFP fluorescence, 300 nM abt” value was −4%; the “percent quench of YFP fluorescence, 1 uM abt” value was 4.05%.

B3: Y115E in SEQ ID NO: 33: SEQ ID NO: 33 chimeric receptor with single substitution Y115E (protein)
chain: B1 chain with Y115E, S131L, D172S
modifications: synthetic sequence of chimeric LGIC
On to B3, for which the “EC50 AZD-0328” value in assay [8] is “no activity”.

B4: Y115D in SEQ ID NO: 33: SEQ ID NO: 33 chimeric receptor with single substitution Y115D (protein)
chain: B1 chain with Y115D, S131L, D172S
modifications: synthetic sequence of chimeric LGIC
In the case of B4, in assay [8], the “EC50 AZD-0328” value is recorded as “no activity”.
